From patent publication US20160304625A1 (WELT BIO MOLECULAR PHARMACEUTICAL, published 2016)

Legend:
[1] = molecular target: human membrane bound IgM with kappa light chain (mIgM-kappa) (human, UniProt P01871 1-474); experiment: cell-based or functional assay
[2] = molecular target: T1, mIgG proximal domain peptide ELQLEESCAEAQDGELDG (human); experiment: competition ELISA, block 'Blocked by mAb 1', mIgG-PD
T1 construct: also called mIgG-PD; 18-mer mIgG
T1 peptide: ELQLEESCAEAQDGELDG

human membrane bound IgM with kappa light chain (mIgM-kappa), sequence (P01871 whole entry, the tested form may be a part): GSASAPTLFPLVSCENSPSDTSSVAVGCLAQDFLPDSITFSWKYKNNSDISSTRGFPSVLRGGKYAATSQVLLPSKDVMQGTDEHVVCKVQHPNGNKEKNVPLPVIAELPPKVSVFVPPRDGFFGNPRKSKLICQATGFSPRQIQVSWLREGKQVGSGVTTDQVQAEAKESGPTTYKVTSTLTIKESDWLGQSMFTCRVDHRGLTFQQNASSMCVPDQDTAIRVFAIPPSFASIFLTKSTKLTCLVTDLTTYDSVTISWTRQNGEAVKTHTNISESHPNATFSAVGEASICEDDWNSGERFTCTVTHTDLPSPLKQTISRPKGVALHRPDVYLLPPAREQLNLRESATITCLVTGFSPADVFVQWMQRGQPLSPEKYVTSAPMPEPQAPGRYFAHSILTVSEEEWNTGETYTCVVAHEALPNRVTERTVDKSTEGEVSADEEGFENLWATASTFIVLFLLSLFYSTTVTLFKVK

B1: monoclonal antibody mAb4-2b (antibody, mouse IgG1, V domains shown)
VH: EVQLEESGAELVKPGASLKLSCKASGYTFTSYWMNWVKQRPGQGLEWIGIIHPNSGSTNYNEKFKTKATLTVDKSSSTAYMQLSSLTSEDSAVYYCARTRGNYGMDYWGQGTSVTVSS
VL: DIVMTQSHKFMSTSVGDRVSITCKASQDVSTAVAWYQQKPGQSPTLLIYSASYRNTGVPDRFTGSGSGTDFTFTISSVQAEDLAVYYCQQHFSIPPLTFGAGTKLELKR
clonogenic capacity of CA 46 [1]: 100 fold
binding result [2]: no binding
